From article PMC3462211, “3D Domain Swapping Causes Extensive Multimerisation of Human Interleukin-10 When Expressed In Planta” (PLoS ONE, 2012)
Blank lines part the entries; values can stand above or below the molecule they belong to.

Columns and labels:
[1] = target: human IL-10^mono fused to the C-terminus of constant domains 2 and 3 of human immunoglobulin A2m1 (Fcα-hIL-10^mono), plant produced (human) (UniProt P22301); assay: non-reducing SDS-PAGE with Western blot; soluble plant proteins (crude leaf extract, desalted on G25 Sephadex, filter sterilised) separated under non-reducing conditions on a NuPAGE 12% Bis-Tris gel; detected with antibodies against hIL-10 or IgA
[2] = target: human IL-10 fused to the C-terminus of constant domains 2 and 3 of human immunoglobulin A2m1 (Fcα-hIL-10), plant produced (human) (UniProt P22301); assay: as above
[3] = target: the molecule itself; assay: as above
[4] = target: the molecule itself; assay: non-reducing SDS-PAGE with Western blot; 50 ng recombinant E. coli produced hIL-10 (R&D Systems) separated under non-reducing conditions on a NuPAGE 12% Bis-Tris gel; detected with an antibody against hIL-10

B1: plant produced human interleukin-10 (natural protein, UniProt P22301 19-178, looked up)
chain: SPGQGTQSENSCTHFPGNLPNMLRDLRDAFSRVKTFFQMKDQLDNLLLKESLLEDFKGYLGCQALSEMIQFYLEEVMPQAENQDPDIKAHVNSLGENLKTLRLRLRRCHRFLPCENKSKAVEQVKNAFNKLQEKGIYKAMSEFDIFINYIEAYMTMKIRN
notes: signal peptide in the construct; human interleukin-10, complete native open reading frame (178 amino acids including the N-terminal signal peptide); the NcoI site adds two extra amino acids to the N-terminus of the signal peptide; Secreted through its own signal peptide; also called hIL-10; human IL-10; source: Nicotiana benthamiana leaves, agro-infiltrated (transient), in desalted crude extract
stoichiometry N [3]: ≥ 2

B2: recombinant E. coli produced human IL-10 (natural protein, UniProt P22301 19-178, looked up)
chain: B1 chain
notes: human interleukin-10, recombinant, E. coli produced, 18 kDa on the blot; also called r hIL-10; E. coli produced hIL-10; source: bought: R&D Systems (recombinant, E. coli produced)
stoichiometry N [4]: ≥ 2

Now from value to molecule:

stoichiometry N [1]: 2
Molecule: human IL-10^mono fused to the C-terminus of constant domains 2 and 3 of human immunoglobulin A2m1 (Fcα-hIL-10^mono), plant produced (from UniProt P22301 19-178) (Fc fusion)

stoichiometry N [2]: 2
Molecule: human IL-10 fused to the C-terminus of constant domains 2 and 3 of human immunoglobulin A2m1 (Fcα-hIL-10), plant produced (from UniProt P22301 19-178) (Fc fusion)
